Data reported in the supplement of paper PMC6757056.
± gives the standard deviation of the averaged measurements.

B1: library; a variant is named by its letters at N, in order (parent)
chain: GCUGUCACCGGUGUAUUACCCUAGUGGUCGACCGGUCUGAUGAGUCUNNNNNNAGACGAAACAGC

Legend:
[1] = variants of: B1; assay: normalized RNA/DNA level with ligand (relative to sTRSVctl = 100) (log10 (% of sTRSVctl)); ligand: hypoxanthine (xanthine aptamer); higher = less ribozyme self-cleavage, higher mRNA level; conditions: ligand concentration (+) RNA-Seq: 5 mM, HEK293T, reporter: mCherry (pCS4076), ligand present: yes
Summary of the method: (§1)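 HEK293T cells were transfected with library plasmids carrying ribozyme switches linked to an mCherry reporter, or an eGFP reporter in some ligand experiments, at 4 µg per well of a 6-well plate, with any ligand added 1 h beforehand. After 72 h, total RNA was extracted with EDTA, reverse-transcribed, amplified, barcoded and sequenced. RNA level was defined as RNA reads over DNA reads, normalized to a spiked-in non-cleaving sequence or to the top-ranked sequences. That value was multiplied by 100 and converted to log10, the top set was 25 sequences, and only sequences with ≥100 DNA reads were retained.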

[2] = variants of: B1; assay: normalized RNA/DNA level without ligand (relative to sTRSVctl = 100) (log10 (% of sTRSVctl)); ligand: hypoxanthine (xanthine aptamer); higher = less ribozyme self-cleavage, higher mRNA level; conditions: HEK293T, reporter: mCherry (pCS4076), ligand present: no
Summary of the method: as §1

| Variant | normalized RNA/DNA level with ligand (log10) [1] | normalized RNA/DNA level without ligand (log10) [2] |
| --- | --- | --- |
| GCUGUCACCGGUGUAUUACCCUAGUGGUCGACCGGUCUGAUGAGUCUGUGCCCAGACGAAACAGC [GUGCCC] | 1.93 ± 0.027 | 1.82 ± 0.049 |
| GCUGUCACCGGUGUAUUACCCUAGUGGUCGACCGGUCUGAUGAGUCUGUGCCAAGACGAAACAGC [GUGCCA] | 1.93 ± 0.021 | 1.81 ± 0.035 |
| GCUGUCACCGGUGUAUUACCCUAGUGGUCGACCGGUCUGAUGAGUCUGUGCCUAGACGAAACAGC [GUGCCU] | 1.98 ± 0.042 | 1.891 ± 0.0069 |
| GCUGUCACCGGUGUAUUACCCUAGUGGUCGACCGGUCUGAUGAGUCUCUGAGUAGACGAAACAGC [CUGAGU] | 1.94 ± 0.073 | 1.839 ± 0.0049 |
| GCUGUCACCGGUGUAUUACCCUAGUGGUCGACCGGUCUGAUGAGUCUGUGCGCAGACGAAACAGC [GUGCGC] | 1.9 ± 0.023 | 1.74 ± 0.098 |
| GCUGUCACCGGUGUAUUACCCUAGUGGUCGACCGGUCUGAUGAGUCUGUGCGAAGACGAAACAGC [GUGCGA] | 1.918 ± 0.0038 | 1.58 ± 0.018 |
| GCUGUCACCGGUGUAUUACCCUAGUGGUCGACCGGUCUGAUGAGUCUGUGAUAAGACGAAACAGC [GUGAUA] | 1.89 ± 0.073 | 1.75 ± 0.027 |
| GCUGUCACCGGUGUAUUACCCUAGUGGUCGACCGGUCUGAUGAGUCUGUGAUUAGACGAAACAGC [GUGAUU] | 1.92 ± 0.0091 | 1.847 ± 0.0028 |
| GCUGUCACCGGUGUAUUACCCUAGUGGUCGACCGGUCUGAUGAGUCUGUGAUCAGACGAAACAGC [GUGAUC] | 1.93 ± 0.036 | 1.54 ± 0.13 |
| GCUGUCACCGGUGUAUUACCCUAGUGGUCGACCGGUCUGAUGAGUCUUUGAUGAGACGAAACAGC [UUGAUG] | 1.94 ± 0.045 | 1.8 ± 0.029 |
| GCUGUCACCGGUGUAUUACCCUAGUGGUCGACCGGUCUGAUGAGUCUUUGAUCAGACGAAACAGC [UUGAUC] | 1.952 ± 0.0039 | 2.02 ± 0.035 |
| GCUGUCACCGGUGUAUUACCCUAGUGGUCGACCGGUCUGAUGAGUCUUUGAUUAGACGAAACAGC [UUGAUU] | 1.98 ± 0.03 | 1.905 ± 0.011 |
| GCUGUCACCGGUGUAUUACCCUAGUGGUCGACCGGUCUGAUGAGUCUGUGAGUAGACGAAACAGC [GUGAGU] | 1.94 ± 0.028 | 1.639 ± 0.0057 |
| GCUGUCACCGGUGUAUUACCCUAGUGGUCGACCGGUCUGAUGAGUCUCUGCCCAGACGAAACAGC [CUGCCC] | 1.99 ± 0.039 | 1.971 ± 0.0093 |
| GCUGUCACCGGUGUAUUACCCUAGUGGUCGACCGGUCUGAUGAGUCUCUGCCGAGACGAAACAGC [CUGCCG] | 1.96 ± 0.082 | 1.8 ± 0.026 |
| GCUGUCACCGGUGUAUUACCCUAGUGGUCGACCGGUCUGAUGAGUCUCUGCCAAGACGAAACAGC [CUGCCA] | 2.03 ± 0.043 | 1.886 ± 0.011 |
| GCUGUCACCGGUGUAUUACCCUAGUGGUCGACCGGUCUGAUGAGUCUCUGCCUAGACGAAACAGC [CUGCCU] | 1.95 ± 0.097 | 1.92 ± 0.036 |
| GCUGUCACCGGUGUAUUACCCUAGUGGUCGACCGGUCUGAUGAGUCUUUGAGUAGACGAAACAGC [UUGAGU] | 1.92 ± 0.026 | 1.75 ± 0.026 |
| GCUGUCACCGGUGUAUUACCCUAGUGGUCGACCGGUCUGAUGAGUCUAUGCACAGACGAAACAGC [AUGCAC] | 1.91 ± 0.12 | 1.74 ± 0.034 |
| GCUGUCACCGGUGUAUUACCCUAGUGGUCGACCGGUCUGAUGAGUCUAUGCAUAGACGAAACAGC [AUGCAU] | 1.87 ± 0.032 | 1.76 ± 0.019 |
| GCUGUCACCGGUGUAUUACCCUAGUGGUCGACCGGUCUGAUGAGUCUUUGCGAAGACGAAACAGC [UUGCGA] | 1.994 ± 0.015 | 1.88 ± 0.027 |

| Variant | normalized RNA/DNA level with ligand (log10) [1] | normalized RNA/DNA level without ligand (log10) [2] |
| --- | --- | --- |
| GCUGUCACCGGUGUAUUACCCUAGUGGUCGACCGGUCUGAUGAGUCUUUGCGCAGACGAAACAGC [UUGCGC] | 1.94 ± 0.027 | 1.91 ± 0.02 |
| GCUGUCACCGGUGUAUUACCCUAGUGGUCGACCGGUCUGAUGAGUCUAUGCGCAGACGAAACAGC [AUGCGC] | 1.93 ± 0.051 | 1.73 ± 0.031 |
| GCUGUCACCGGUGUAUUACCCUAGUGGUCGACCGGUCUGAUGAGUCUAUGCCCAGACGAAACAGC [AUGCCC] | 1.97 ± 0.062 | 1.87 ± 0.048 |
| GCUGUCACCGGUGUAUUACCCUAGUGGUCGACCGGUCUGAUGAGUCUAUGCCUAGACGAAACAGC [AUGCCU] | 1.958 ± 0.0056 | 1.818 ± 0.0027 |
| GCUGUCACCGGUGUAUUACCCUAGUGGUCGACCGGUCUGAUGAGUCUAUGCCGAGACGAAACAGC [AUGCCG] | 1.837 ± 0.01 | 1.49 ± 0.089 |
| GCUGUCACCGGUGUAUUACCCUAGUGGUCGACCGGUCUGAUGAGUCUUUGCCAAGACGAAACAGC [UUGCCA] | 1.95 ± 0.017 | 1.94 ± 0.028 |
| GCUGUCACCGGUGUAUUACCCUAGUGGUCGACCGGUCUGAUGAGUCUUUGCCUAGACGAAACAGC [UUGCCU] | 2.007 ± 0.018 | 1.99 ± 0.057 |
| GCUGUCACCGGUGUAUUACCCUAGUGGUCGACCGGUCUGAUGAGUCUUUGCCCAGACGAAACAGC [UUGCCC] | 1.99 ± 0.025 | 1.997 ± 0.0042 |
| GCUGUCACCGGUGUAUUACCCUAGUGGUCGACCGGUCUGAUGAGUCUAUGAUUAGACGAAACAGC [AUGAUU] | 1.92 ± 0.036 | 1.709 ± 0.003 |
| GCUGUCACCGGUGUAUUACCCUAGUGGUCGACCGGUCUGAUGAGUCUAUGAUCAGACGAAACAGC [AUGAUC] | 1.98 ± 0.039 | 1.93 ± 0.022 |
| GCUGUCACCGGUGUAUUACCCUAGUGGUCGACCGGUCUGAUGAGUCUUUGCAAAGACGAAACAGC [UUGCAA] | 1.92 ± 0.03 | 1.79 ± 0.048 |
| GCUGUCACCGGUGUAUUACCCUAGUGGUCGACCGGUCUGAUGAGUCUUUGCAUAGACGAAACAGC [UUGCAU] | 1.98 ± 0.024 | 1.862 ± 0.004 |
| GCUGUCACCGGUGUAUUACCCUAGUGGUCGACCGGUCUGAUGAGUCUUUGCACAGACGAAACAGC [UUGCAC] | 1.96 ± 0.051 | 1.9 ± 0.038 |
| GCUGUCACCGGUGUAUUACCCUAGUGGUCGACCGGUCUGAUGAGUCUUUGCAGAGACGAAACAGC [UUGCAG] | 1.915 ± 0.017 | 1.79 ± 0.099 |
| GCUGUCACCGGUGUAUUACCCUAGUGGUCGACCGGUCUGAUGAGUCUCUGAUGAGACGAAACAGC [CUGAUG] | 1.936 ± 0.0068 | 1.646 ± 0.0062 |
| GCUGUCACCGGUGUAUUACCCUAGUGGUCGACCGGUCUGAUGAGUCUCUGAUCAGACGAAACAGC [CUGAUC] | 1.98 ± 0.035 | 1.949 ± 0.019 |
| GCUGUCACCGGUGUAUUACCCUAGUGGUCGACCGGUCUGAUGAGUCUCUGAUUAGACGAAACAGC [CUGAUU] | 1.94 ± 0.096 | 1.87 ± 0.031 |
| GCUGUCACCGGUGUAUUACCCUAGUGGUCGACCGGUCUGAUGAGUCUCUGCAUAGACGAAACAGC [CUGCAU] | 1.94 ± 0.043 | 1.8 ± 0.074 |
| GCUGUCACCGGUGUAUUACCCUAGUGGUCGACCGGUCUGAUGAGUCUCUGCAAAGACGAAACAGC [CUGCAA] | 1.933 ± 0.0062 | 1.773 ± 0.015 |
| GCUGUCACCGGUGUAUUACCCUAGUGGUCGACCGGUCUGAUGAGUCUCUGCACAGACGAAACAGC [CUGCAC] | 1.94 ± 0.057 | 1.869 ± 0.018 |
| GCUGUCACCGGUGUAUUACCCUAGUGGUCGACCGGUCUGAUGAGUCUCUGCGGAGACGAAACAGC [CUGCGG] | 1.96 ± 0.1 | 1.902 ± 0.0065 |
